Test results from the MegaScale stability set (Tsuboyama et al. 2023).

B1: EEHEE_rd4_0469 (parent)
chain: ITIHVNGVTYHFDNPEEAEKFAQKMAKTYQLKMEIHNGEFHME
B2: HEEH_KT_rd6_3546 (parent)
chain: SEEDKEREHWERLNRDFELRVLDTTFIAHHAEEVIKLLRWLEK

Variants of: B1
Experiment: folding stability dG (cDNA display proteolysis); higher = more stable
Conditions: PBS, room temperature

Folding stability dG [kcal/mol]: each site, then its substitutions
I1: M 0.992; V 1.02; R 1.01; S 0.683; E 0.225; C 1.65; A 0.749; P 0.64; T 0.826; Y 1.16; K 0.846; F 1.08; H 0.725; G 0.443; D 0.302; Q 0.734; L 0.959; N 0.57; W 1.32
I3: P -0.854; W 0.819; Y 0.837; E -0.263; L 0.868; T 0.127; Q -0.059; A 0.525; D 0.068; F 0.925; S -0.094; N -0.377; V 1.35; C 1.55; G 0.58; K 0.19; H 0.159; M 0.706; R 0.201
H4: G 0.633; C 1.77; F 1.08; L 0.939; I 0.994; K 0.918; M 0.82; E 0.692; A 0.76; D 0.586
T2: F 1.42; Y 1.36; I 1.24; M 1.01; L 1.25; H 1.51; A 0.989; P 0.663; D 1.13; R 1.46; S 1.08; E 0.797; G 0.665; N 1.17; C 1.72; W 1.47; Q 0.972; V 1.13; K 1.31

Variants of: B2
Experiment: as above
Conditions: PBS, room temperature

Folding stability dG [kcal/mol] of substitutions, site by site:
V34: Y 1.06; D 0.006; A 1.06; E 0.228; I 1.75; C 1.54; Q -0.202; T 0.62; N -0.04; M 1.2; S 0.133; W 1.47; L 1.57; K 0.1; H 0.255; F 1.61; R 0.162; G 0.3
L38: A 0.316; T 0.188; W 1.61; V 0.9; Y 0.971; S 0.079; G -0.072; P -0.432; D -0.361; F 1.39; E -0.1; M 0.931; R 0.8; Q 0.257; C 1.78; N 0.045; H 0.371; I 1.09; K 0.405
K36: L 1.92; E 0.928; W 1.87; I 2.02; T 1.28; Q 1.23; C 2.09; G 1.14; A 1.56; V 1.87; F 2.13; D 1; H 1.24; R 1.51; S 1.23; P 0.419; N 1.28; M 1.93; Y 1.82
R39: P 0.359; D 0.762; M 1.21; N 0.829; Q 0.982; K 1.28; E 0.969; W 1.55; T 1.37; H 1.17; Y 1.54; I 1.77; S 1.01; V 1.33; L 1.59; F 1.7; G 0.742; A 0.866
E33: P 0.926; Y 2.16; S 1.44; N 1.45; W 2.45; H 1.41; I 2.31; F 2.31; M 2.06; L 2.05; G 1.47; D 1.34; R 1.46; A 1.74; V 2.06; C 2.69; Q 1.46; T 1.47; K 1.62
A31: G 0.934; V 2.1; D 0.6; Y 1.61; N 0.698; L 1.94; R 1.07; S 0.872; C 2.24; T 1.33; H 0.66; K 1.09; W 2.28; Q 0.833; I 2.19; M 1.79; P 0.618; F 1.96; E 0.663
W40: F 1.1; A 0.156; C 1.55; S 0.639; N 0.617; D 0.502; Q 0.781; R 0.934; L 1.01; K 0.6; E 0.585; H 0.768; P -0.109; Y 1.13; I 1.31; T 0.373; M 1.11; G 0.388; V 0.885
L41: N -0.295; A 0.58; P 0.119; I 1.14; H 0.356; F 1.38; D -0.253; Q 0.519; C 1.83; E -0.48; Y 0.761; W 1.22; K 0.491; T 0.442; V 1.21; S -0.005; R 0.586; M 1.22; G 0.088
H30: K 1.13; W 2.69; R 1.07; F 2.3; I 2.09; T 1.72; D 0.85; P 0.902; Q 1.06; S 1.23; G 1.44; A 2.04; C 1.6; Y 2.05; M 2.34; E 0.893; N 1.09; V 2.38; L 2.38
K43: Y 1.8; V 1.56; A 1.27; G 1.82; W 2.03; R 1.65; L 1.36; Q 1.36; T 1.22; S 1.2; M 1.5; D 1.45; I 1.38; E 1.3; F 1.57; P 0.967; H 1.17; N 1.3; C 1.57
L37: K 0.138; W 1.63; A 0.846; G 0.136; N 0.031; R 0.273; S 0.285; E -0.07; I 1.23; M 1.09; T 0.61; V 0.922; D -0.437; Y 1.23; P -0.172; H 0.36; F 1.62; Q 0.133
H29: T 1.35; V 1.61; S 1.59; Y 1.94; W 2.01
I35: Y 1.33; K 0.927; G 0.628; A 1.03; T 0.787; D 0.67; E 0.843; L 1.47; W 1.59; Q 0.925; V 1.17; H 0.843; M 1.33; C 1.88; S 0.508; R 1.12; N 0.739; F 1.49; P -0.407
E32: N 1.26; P 1.25; S 1.42; Q 1.29; K 1.54; A 1.93; F 2.21; G 1.2; L 1.92; C 1.31; I 1.73; R 1.37; V 1.79; Y 1.9; T 1.43; W 2.1; M 1.72; D 1.23; H 1.42
E42: W 2.59; N 1.56; D 1.07; A 1.82; F 2.75; M 2.4; I 2.41; R 1.85; G 1.7; P 0.291; K 1.69; S 1.84; H 1.63; Y 2.57; Q 1.67; L 2.42; V 2.26; T 2.1
